The text below walks through data of patent publication US20130108636A1.

For test [1], the target named is gp140Con-s. The experiment in a line: SPR; target not given, taken from Example 5. (SPR reads the build-up and loss of mass on a sensor chip optically.)
The target of test [2] is gp140Con-s. Put plainly: SPR (Biacore X100), gp140 amine-coupled on a CM5 chip, single-cycle, monovalent model.

In the test with gp140Con-s [1], “D1D2 (from UniProt P01730 26-203) (receptor)” returned a koff of 0.0013 s⁻¹. The substance further came in with a dissociation constant Kd with gp140Con-s [2] of 7.8 nM.
Regarding mD1-CH2 (from UniProt P01730 26-124), in the test with gp140Con-s [1], the fold decrease of association rate constant compared to mD1 came out at 80 fold, the koff was found to be 0.0009 s⁻¹ and the kon stood at 61000 M⁻¹ s⁻¹.

The koff is the first-order rate constant of dissociation. High values mean fast dissociation, low ones slow dissociation. As usually defined, the Kd is the concentration at which binding is half-saturated. Low readings indicate higher affinity, high ones lower affinity. The term kon denotes the second-order rate constant of association.
